Columns and labels:
Assay in all cases: AP-MS, 3xFLAG bait, MDA-MB-231 cells
BRCA1 M1775R = molecular target: T1, BRCA1 M1775R (human, UniProt P38398 1-1863)
T1 construct: 3xFLAG-tagged bait; also called BRCT domain mutant M1775R

BRCA1 S1655F = molecular target: T2, BRCA1 S1655F (human, UniProt P38398 1-1863)
T2 construct: 3xFLAG-tagged bait; also called BRCT domain mutant S1655F; 51655F

BRCA1 5382insC = molecular target: T3, BRCA1 5382insC (human, UniProt P38398 1-1755, limits assumed)
T3 construct: 3xFLAG-tagged bait; also called 5832insC

Measured: binding result

B1: UIMC1 (other, human, UniProt Q96RL1 1-719, looked up)
chain: MPRRKKKVKEVSESRNLEKKDVETTSSVSVKRKRRLEDAFIVISDSDGEEPKEENGLQKTKTKQSNRAKCLAKRKIAQMTEEEQFALALKMSEQEAREVNSQEEEEEELLRKAIAESLNSCRPSDASATRSRPLATGPSSQSHQEKTTDSGLTEGIWQLVPPSLFKGSHISQGNEAEEREEPWDHTEKTEEEPVSGSSGSWDQSSQPVFENVNVKSFDRCTGHSAEHTQCGKPQESTGRGSAFLKAVQGSGDTSRHCLPTLADAKGLQDTGGTVNYFWGIPFCPDGVDPNQYTKVILCQLEVYQKSLKMAQRQLLNKKGFGEPVLPRPPSLIQNECGQGEQASEKNECISEDMGDEDKEERQESRASDWHSKTKDFQESSIKSLKEKLLLEEEPTTSHGQSSQGIVEETSEEGNSVPASQSVAALTSKRSLVLMPESSAEEITVCPETQLSSSETFDLEREVSPGSRDILDGVRIIMADKEVGNKEDAEKEVAISTFSSSNQVSCPLCDQCFPPTKIERHAMYCNGLMEEDTVLTRRQKEAKTKSDSGTAAQTSLDIDKNEKCYLCKSLVPFREYQCHVDSCLQLAKADQGDGPEGSGRACSTVEGKWQQRLKNPKEKGHSEGRLLSFLEQSEHKTSDADIKSSETGAFRVPSPGMEEAGCSREMQSSFTRRDLNESPVKSFVSISEATDCLVDFKKQVTVQPGSRTRTKAGRGRRRKF
notes: endogenous prey from cell lysate
no binding: all assays above

— US20240321457A1 (University of California, published 2024)
